Consider 20 molecules from article PMC6510891, “Functional duplication of Rap1 in methylotrophic yeasts”.

The target of series [1] is T1, HpRap1A (Hansenula polymorpha DL-1, UniProt W1Q7Z6 1-613).
T1 sequence: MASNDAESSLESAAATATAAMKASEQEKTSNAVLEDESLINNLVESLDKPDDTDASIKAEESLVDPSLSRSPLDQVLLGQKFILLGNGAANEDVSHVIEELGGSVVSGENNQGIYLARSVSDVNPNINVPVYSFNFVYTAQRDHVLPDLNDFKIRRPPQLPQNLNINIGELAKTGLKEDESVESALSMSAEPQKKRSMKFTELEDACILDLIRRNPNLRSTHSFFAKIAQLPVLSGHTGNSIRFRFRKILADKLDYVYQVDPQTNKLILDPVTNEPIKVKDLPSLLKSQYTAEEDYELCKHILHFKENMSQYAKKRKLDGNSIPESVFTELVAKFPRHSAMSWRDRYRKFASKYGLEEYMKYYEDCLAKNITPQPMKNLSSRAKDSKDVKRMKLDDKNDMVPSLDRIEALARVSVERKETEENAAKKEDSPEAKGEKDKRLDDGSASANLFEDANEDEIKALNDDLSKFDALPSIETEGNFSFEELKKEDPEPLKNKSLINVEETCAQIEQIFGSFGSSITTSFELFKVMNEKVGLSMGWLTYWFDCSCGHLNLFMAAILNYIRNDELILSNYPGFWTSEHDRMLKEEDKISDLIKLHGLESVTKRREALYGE
In words: competition SPR; score - vs VIIrAbs surface; SPR: 10 mM HEPES-NaOH pH 7.5, 150 mM NaCl, 0.5 mM DTT, 0.05% Tween 20, 1 mg/ml BSA, 0.02 mg/ml salmon sperm DNA; competition 2 nM protein with 20 or 200 nM competitor. EMSA: 20 mM HEPES-NaOH pH 7.5, 50 mM NaCl, 0.2 mg/ml BSA, 5% glycerol, 0.1 mg/ml salmon sperm DNA, room temperature. To be noted: protein: recombinant; blunt. On the technique in general: In EMSA bound probe runs differently from free probe, usually more slowly.

Series [2] concerns the target T1, HpRap1A. Nature of the series: SPR; SPR: 10 mM HEPES-NaOH pH 7.5, 150 mM NaCl, 0.5 mM DTT, 0.05% Tween 20, 1 mg/ml BSA, 0.02 mg/ml salmon sperm DNA; competition 2 nM protein with 20 or 200 nM competitor. EMSA: 20 mM HEPES-NaOH pH 7.5, 50 mM NaCl, 0.2 mg/ml BSA, 5% glycerol, 0.1 mg/ml salmon sperm DNA, room temperature. Particulars: protein: recombinant; 3' overhang 20 nt on strand 2. Background: Surface plasmon resonance follows binding to a sensor surface in real time, without labels.

Series [3] has as its target T2, HpRap1B (Hansenula polymorpha DL-1, UniProt W1QDN2 1-576).
T2 sequence: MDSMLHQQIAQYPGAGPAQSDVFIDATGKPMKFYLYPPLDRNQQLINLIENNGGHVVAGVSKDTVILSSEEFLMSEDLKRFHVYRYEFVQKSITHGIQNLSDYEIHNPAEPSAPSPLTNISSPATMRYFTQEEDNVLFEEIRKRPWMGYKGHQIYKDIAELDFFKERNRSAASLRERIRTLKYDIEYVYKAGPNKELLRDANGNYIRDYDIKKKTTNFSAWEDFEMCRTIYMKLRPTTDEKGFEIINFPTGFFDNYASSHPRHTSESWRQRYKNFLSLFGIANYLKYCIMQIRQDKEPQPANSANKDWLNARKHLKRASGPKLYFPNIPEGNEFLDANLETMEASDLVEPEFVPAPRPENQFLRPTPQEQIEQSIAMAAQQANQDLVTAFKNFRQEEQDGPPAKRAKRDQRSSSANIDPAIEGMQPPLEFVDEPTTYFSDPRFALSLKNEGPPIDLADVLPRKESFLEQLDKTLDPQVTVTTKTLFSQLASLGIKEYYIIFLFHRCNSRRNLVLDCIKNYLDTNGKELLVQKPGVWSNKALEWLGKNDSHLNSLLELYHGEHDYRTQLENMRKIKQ
The description is as above. Particulars: protein: recombinant; 3' overhang 20 nt on strand 2.

The target in series [4] is T2, HpRap1B. Nature of the series: competition SPR; score - vs PICKU surface; SPR: 10 mM HEPES-NaOH pH 7.5, 150 mM NaCl, 0.5 mM DTT, 0.05% Tween 20, 1 mg/ml BSA, 0.02 mg/ml salmon sperm DNA; competition 2 nM protein with 20 or 200 nM competitor. EMSA: 20 mM HEPES-NaOH pH 7.5, 50 mM NaCl, 0.2 mg/ml BSA, 5% glycerol, 0.1 mg/ml salmon sperm DNA, room temperature. To be noted: protein: recombinant; blunt.

Series [5] deals with T1, HpRap1A. Nature of the series: SPR; kinetic fit; SPR: 10 mM HEPES-NaOH pH 7.5, 150 mM NaCl, 0.5 mM DTT, 0.05% Tween 20, 1 mg/ml BSA, 0.02 mg/ml salmon sperm DNA; competition 2 nM protein with 20 or 200 nM competitor. EMSA: 20 mM HEPES-NaOH pH 7.5, 50 mM NaCl, 0.2 mg/ml BSA, 5% glycerol, 0.1 mg/ml salmon sperm DNA, room temperature. To be noted: protein: recombinant; 3' overhang 20 nt on strand 2.

In series [6] the target is T1, HpRap1A. In words: competition SPR; score +++ vs VIIrAbs surface; SPR: 10 mM HEPES-NaOH pH 7.5, 150 mM NaCl, 0.5 mM DTT, 0.05% Tween 20, 1 mg/ml BSA, 0.02 mg/ml salmon sperm DNA; competition 2 nM protein with 20 or 200 nM competitor. EMSA: 20 mM HEPES-NaOH pH 7.5, 50 mM NaCl, 0.2 mg/ml BSA, 5% glycerol, 0.1 mg/ml salmon sperm DNA, room temperature. Particulars: protein: recombinant; blunt.

In series [7] the target is T2, HpRap1B. In words: SPR; kinetic fit; SPR: 10 mM HEPES-NaOH pH 7.5, 150 mM NaCl, 0.5 mM DTT, 0.05% Tween 20, 1 mg/ml BSA, 0.02 mg/ml salmon sperm DNA; competition 2 nM protein with 20 or 200 nM competitor. EMSA: 20 mM HEPES-NaOH pH 7.5, 50 mM NaCl, 0.2 mg/ml BSA, 5% glycerol, 0.1 mg/ml salmon sperm DNA, room temperature. Particulars: protein: recombinant; 3' overhang 20 nt on strand 2.

The target of series [8] is T2, HpRap1B. Nature of the series: competition SPR; score ++ vs PICKU surface; SPR: 10 mM HEPES-NaOH pH 7.5, 150 mM NaCl, 0.5 mM DTT, 0.05% Tween 20, 1 mg/ml BSA, 0.02 mg/ml salmon sperm DNA; competition 2 nM protein with 20 or 200 nM competitor. EMSA: 20 mM HEPES-NaOH pH 7.5, 50 mM NaCl, 0.2 mg/ml BSA, 5% glycerol, 0.1 mg/ml salmon sperm DNA, room temperature. To be noted: protein: recombinant; blunt.

B1: PACTA (dsDNA)
DNA 1: TGTGAGTGGTGTGAGTGGTGTGAGTGG
DNA 2: CCACTCACACCACTCACACCACTCACA
Regarding B1, in the series with HpRap1A [1], the binding result is recorded as “no binding”.

B2: rnd1 (SPR) (dsDNA)
DNA 1: ACGACTCACTGTAGATACGACTCACTGTAGAT
DNA 2: ATCTACAGTGAGTCGTATCTACAGTGAGTCGTCCTCTACGTCCTCCTGCTCC
For B2, the binding result in the series with HpRap1A [2] and with HpRap1B [3] was “no binding” each time.

B3: rnd1 (competitor) (dsDNA)
DNA 1: ACGACTCACTGTAGATACGACTCACTGTAGAT
DNA 2: ATCTACAGTGAGTCGTATCTACAGTGAGTCGT
As to B3, the binding result with HpRap1A [1] and in the series with HpRap1B [4] was “no binding” throughout.

B4: CANAL (SPR) (dsDNA)
DNA 1: ACTTCTTGGTGTACGGATGTCTA
DNA 2: TAGACATCCGTACACCAAGAAGTCCTCTACGTCCTCCTGCTCC
The term Kd denotes a measure of binding affinity in units of concentration. On to B4, for which the Kd with HpRap1A [5] came out at 0.05 ± 0.014 nM.

B5: CANAL (competitor) (dsDNA)
DNA 1: ACTTCTTGGTGTACGGATGTCTA
DNA 2: TAGACATCCGTACACCAAGAAGT
Turning to B5, the binding result with HpRap1A [6] is recorded as “binds”.

B6: DEBHA (dsDNA)
DNA 1: GTGTTGAGGTGTAGGGATGTTGA
DNA 2: TCAACATCCCTACACCTCAACAC
Turning to B6, the binding result with HpRap1A [6] is listed as “binds”.

B7: RPS14 (dsDNA)
DNA 1: GTGTTCAGGTGTGAGGTGTGTTT
DNA 2: AAACACACCTCACACCTGAACACCCTCTACGTCCTCCTGCTCC
As to B7, the binding result with HpRap1A [2] is on record as “no binding”. Moreover, the Kd with HpRap1B [7] was 0.048 ± 0.007 nM.

B8: HANPO4 (competitor) (dsDNA)
DNA 1: GGGTGGCGGGGTGGCGGGGTGGCGGGGTGGCG
DNA 2: CGCCACCCCGCCACCCCGCCACCCCGCCACCC
With B8, the binding result with HpRap1A [1] was “no binding”.

B9: SACCE (competitor) (dsDNA)
DNA 1: GTGTGTGGGTGTGTGGGTGTGTG
DNA 2: CACACACCCACACACCCACACAC
For B9, the binding result with HpRap1B [8] is “binds”.

B10: CANAR (competitor) (dsDNA)
DNA 1: GGTGTTGGGTGTTGGGTGTTGGG
DNA 2: CCCAACACCCAACACCCAACACC
Turning to B10, the results for the binding result with HpRap1B [8] and with HpRap1A [1] were “binds” and “no binding”, respectively.

B11: RPS22b (dsDNA)
DNA 1: AATGTTCGGTTCGAGGAGTTCTT
DNA 2: AAGAACTCCTCGAACCGAACATTCCTCTACGTCCTCCTGCTCC
B11: the binding result in the series with HpRap1A [2] is “no binding”.

B12: RPL36b (dsDNA)
DNA 1: GGACAGTGGTGTAGGGGGTAGAG
DNA 2: CTCTACCCCCTACACCACTGTCCCCTCTACGTCCTCCTGCTCC
As to B12, the binding result in the series with HpRap1A [2] is “no binding”.

B13: PICME (dsDNA)
DNA 1: TAGAACTAGGTGTGCGGGGTATAATAG
DNA 2: CTATTATACCCCGCACACCTAGTTCTA
Consider B13, for which the binding result with HpRap1B [8] is listed as “binds”; in the series with HpRap1A [1], “no binding”.

B14: rnd2 (dsDNA)
DNA 1: AAATCTAGACATGAAAAAAAAAATGTTAGTAATCGAAATCTC
DNA 2: GAGATTTCGATTACTAACATTTTTTTTTTCATGTCTAGATTT
Take B14: the binding result in the series with HpRap1A [1] and in the series with HpRap1B [4] was “no binding” throughout.

B15: VIIrAbs (competitor) (dsDNA)
DNA 1: GGCAGGCGGTGTAGGGATGCGGC
DNA 2: GCCGCATCCCTACACCGCCTGCC
As for B15, the results for the binding result with HpRap1A [6] and in the series with HpRap1B [4] were “binds” and “no binding”, respectively.

B16: RPS16 (dsDNA)
DNA 1: CAAACCCCGTGTAAGGGTGCCTA
DNA 2: TAGGCACCCTTACACGGGGTTTGCCTCTACGTCCTCCTGCTCC
For the molecule B16, the binding result with HpRap1B [3] is on record as “no binding”. For the same molecule, the Kd with HpRap1A [5] was 0.5 ± 0.08 nM.

B17: CANMA (dsDNA)
DNA 1: CTCGCTTGGTGTACGGATGCAGA
DNA 2: TCTGCATCCGTACACCAAGCGAG
With B17, the binding result with HpRap1A [6] is on record as “binds”.

B18: DEKBR (dsDNA)
DNA 1: GGATTGGTGGATTGGTGGATTGGT
DNA 2: ACCAATCCACCAATCCACCAATCC
Consider B18, for which the binding result with HpRap1A [1] and with HpRap1B [4] was “no binding” throughout.

B19: PICPA (dsDNA)
DNA 1: GGATGCTGGATGCTGGATGCTGGATGCT
DNA 2: AGCATCCAGCATCCAGCATCCAGCATCC
As to B19, the binding result in the series with HpRap1A [1] and with HpRap1B [4] was “no binding” in each case.

B20: CANAR (SPR) (dsDNA)
DNA 1: GGTGTTGGGTGTTGGGTGTTGGG
DNA 2: CCCAACACCCAACACCCAACACCCCTCTACGTCCTCCTGCTCC
Take B20: the binding result in the series with HpRap1A [2] was “no binding”.
